Like-named read-outs stand apart in the source and are kept apart here.

Experiment [1] concerns the target T1, FcgRIa (human, UniProt P12314 16-292).
T1 construct: extracellular domain; also called FcγRIa; FcγRI; not shown: C-terminal His tag
As to the kind of experiment: SPR (Biacore), antibody captured on chip, FcgR as analyte. The protocol:
(§1) The variants described above were assessed for their binding to FcgR according to the method described in Reference Example 8.
(§2) Analysis of interaction between obj ective antibody and the FcγR was carried out using Biacore T100 (GE Healthcare), Biacore T200, Biacore A100, and Biacore 4000. HBS-EP+ (GE Healthcare) was used as the running buffer, and the measurement temperature was set to 25° C. Chips produced by immobilizing the antigen peptide by the amine coupling method to a Series S sensor Chip CM5 (GE Healthcare), chips produced by allowing preliminarily biotinylated antigen peptides to interact with and immobilize onto a Series S Sensor Chip SA (certified) (GE Healthcare), chips produced by immobilizing Protein L (ACTIGEN, BioVision) to Series S Sencor Chip CM5 (GE Healthcare), or chips produced by immobilizing Protein A/G (Thermo Scientific) to Series S Sencor Chip CM5 (GE Healthcare) were used. Antibodies of interest were captured onto these chips, and allowed to interact to each FcγR diluted with running buffer. To regenerate and repeatedly use the chip, the antibodies captured onto the chip were washed off by reacting 10 mM glycine-HCl, pH 1.5.

Experiment [2] deals with T2, FcgRIIaR (human, UniProt P12318 34-217).
T2 construct: extracellular domain; R131 allotype; also called FcγRIIa R; FcgRIIa type R; not shown: C-terminal His tag
T2 sequence (looked up): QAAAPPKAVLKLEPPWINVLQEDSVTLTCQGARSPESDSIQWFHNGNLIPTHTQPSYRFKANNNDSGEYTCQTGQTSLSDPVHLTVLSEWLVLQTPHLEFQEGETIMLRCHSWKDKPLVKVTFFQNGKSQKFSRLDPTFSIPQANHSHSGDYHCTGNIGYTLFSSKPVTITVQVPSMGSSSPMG
Described as above. As to the method:
as §1, §2

Experiment [3] addresses T3, FcgRIIaH (human, UniProt P12318 34-217).
T3 construct: extracellular domain; H131 allotype; also called FcγRIIa H; FcgRIIa type H; not shown: C-terminal His tag
T3 sequence (looked up): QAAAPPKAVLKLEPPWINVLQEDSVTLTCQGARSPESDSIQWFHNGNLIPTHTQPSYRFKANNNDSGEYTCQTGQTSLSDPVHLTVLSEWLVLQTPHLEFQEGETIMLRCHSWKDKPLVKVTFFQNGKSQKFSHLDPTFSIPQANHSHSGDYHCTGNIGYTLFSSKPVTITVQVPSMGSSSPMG
The experiment is described as above. As to the method: as §1, §2

In experiment [4] the target is T4, FcgRIIb (human, UniProt P31994 43-217).
T4 construct: extracellular domain; also called FcγRIIb; CD32B; not shown: C-terminal His tag
T4 sequence (looked up): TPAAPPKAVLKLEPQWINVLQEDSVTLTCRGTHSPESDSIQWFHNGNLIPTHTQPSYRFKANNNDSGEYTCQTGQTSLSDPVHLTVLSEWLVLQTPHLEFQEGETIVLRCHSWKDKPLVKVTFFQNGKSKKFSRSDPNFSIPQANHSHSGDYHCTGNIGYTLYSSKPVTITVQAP
The experiment is described as above. As to the method:
as §1, §2

For experiment [5], the target named is T5, FcgRIIIaF (human, UniProt P08637 17-208).
T5 construct: extracellular domain; F158 allotype; also called FcγRIIIa F; not shown: C-terminal His tag
T5 sequence (P08637 17-208): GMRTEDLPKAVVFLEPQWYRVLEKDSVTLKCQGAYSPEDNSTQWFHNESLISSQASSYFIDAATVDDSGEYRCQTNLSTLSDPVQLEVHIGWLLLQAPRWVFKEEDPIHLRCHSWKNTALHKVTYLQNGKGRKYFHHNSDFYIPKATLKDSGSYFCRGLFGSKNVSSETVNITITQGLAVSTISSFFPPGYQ
Described as above. The protocol: as §1, §2

In experiment [6] the target is T6, FcgRIIIaV (human, UniProt P08637 17-208).
T6 construct: extracellular domain; V158 allotype; also called FcγRIIIa V; not shown: C-terminal His tag
T6 sequence (P08637 17-208 F176V limits assumed): as the sequence (P08637 17-208) above, with F160V counted along it
The description is as above. The protocol:
as §1, §2

The target in experiment [7] is T1, FcgRIa. The experiment is described as above. As to the method:
(§3) The variants described above were assessed for their binding to FcγR according to the method described in Reference Example 8.
as §2
The source holds these as a separate data set.

The target of experiment [8] is T2, FcgRIIaR. Described as above. The protocol:
as §3, §2
The source holds these as a separate data set.

The target of experiment [9] is T3, FcgRIIaH. The experiment is described as above. The protocol:
as §3, §2
The source holds these as a separate data set.

Experiment [10] addresses T4, FcgRIIb. The description is as above. The protocol: as §3, §2
The source holds these as a separate data set.

For experiment [11], the target named is T5, FcgRIIIaF. Described as above. As to the method:
as §3, §2
The source holds these as a separate data set.

Experiment [12] addresses T6, FcgRIIIaV. The experiment is described as above. As to the method: as §3, §2
This is another data set of the same source.

Experiment [13] addresses T2, FcgRIIaR. The experiment in a line: SPR (Biacore); KD of H240-Kn120/H240-Hl068/L73-k0 divided by KD of the sample. As to the method:
as §1, §2

Experiment [14] addresses T3, FcgRIIaH. The experiment is described as above. The protocol: as §1, §2
Experiment [15] deals with T4, FcgRIIb. The experiment is described as above. As to the method: as §1, §2
Experiment [16] concerns the target T5, FcgRIIIaF. The experiment is described as above. As to the method:
as §1, §2

In experiment [17] the target is T6, FcgRIIIaV. Described as above. The protocol:
as §1, §2

Experiment [18] addresses T2, FcgRIIaR. Described as above. The protocol:
as §3, §2
This is another data set of the same source.

The target in experiment [19] is T3, FcgRIIaH. Described as above. As to the method: as §3, §2
This is another data set of the same source.

Experiment [20] addresses T4, FcgRIIb. The description is as above. As to the method:
as §3, §2
This is another data set of the same source.

Experiment [21] deals with T5, FcgRIIIaF. The experiment is described as above. As to the method: as §3, §2
The source holds these as a separate data set.

Experiment [22] has as its target T6, FcgRIIIaV. The description is as above. As to the method: as §3, §2
This is another data set of the same source.

T1 sequence (P12314 16-292): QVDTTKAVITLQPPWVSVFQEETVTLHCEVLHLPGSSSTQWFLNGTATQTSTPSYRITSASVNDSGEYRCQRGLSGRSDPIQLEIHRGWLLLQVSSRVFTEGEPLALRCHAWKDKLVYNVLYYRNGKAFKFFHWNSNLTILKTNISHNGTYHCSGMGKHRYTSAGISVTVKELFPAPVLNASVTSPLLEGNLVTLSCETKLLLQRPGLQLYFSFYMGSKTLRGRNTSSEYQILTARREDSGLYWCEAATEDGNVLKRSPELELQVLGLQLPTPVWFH

B1: H240-Kn120/H240-Hl068/L73-k0 (antibody, human IgG1, kappa)
heavy 1: QDQLVQSGAEVKKPGASVKVSCKASGFNIKDTYIQWVRQAPGQGLEWMGRIDPLRKQTKYREKFEGRVTITADTSTNTAYMELSSLRSEDTAVYYCVRSGREFDYWGQGTLVTVSSASTKGPSVFPLAPSSKSTSGGTAALGCLVKDYFPEPVTVSWNSGALTSGVHTFPAVLQSSGLYSLSSVVTVPSSSLGTQTYICNVNHKPSNTKVDKKVEPKSCDKTHTCPPCPAPEYYWGPMVFLFPPKPKDTLMISRTPEVTCVVVDVSDEDPEVKFNWYVDGVEVHNAKTKPREEQYNATYRVVSVLTVLHQDWLNGKEYKCKVSNKDLPAPIEKTISKAKGQPREPQVCTLPPSRDELTKNQVSLWCLVKGFYPSDIAVEWESNGQPENNYKTTPPVLDSDGSFFLYSKLTVDKSRWQQGNVFSCSVMHEALHNHYTQKSLSLSP
heavy 2: QDQLVQSGAEVKKPGASVKVSCKASGFNIKDTYIQWVRQAPGQGLEWMGRIDPLRKQTKYREKFEGRVTITADTSTNTAYMELSSLRSEDTAVYYCVRSGREFDYWGQGTLVTVSSASTKGPSVFPLAPSSKSTSGGTAALGCLVKDYFPEPVTVSWNSGALTSGVHTFPAVLQSSGLYSLSSVVTVPSSSLGTQTYICNVNHKPSNTKVDKKVEPKSCDKTHTCPPCPAPELLGGPSVFLFPPKPKDTLMISRTPEVTCVVVDVSHEEPEVKFNWYVDGVEVHNAKTKPREEQYNSTYRVVSVLTVLHQDWLNGKEYKCKVSNDALPKPIEETISKAKGQPREPQVYTLPPSRCELTKNQVSLSCAVKGFYPSDIAVEWESNGQPENNYKTTPPVLDSDGSFFLVSKLTVDKSRWQQGNVFSCSVMHEALHNHYTQKSLSLSP
light: DIQMTQSPSSLSASVGDRVTITCRASQDIHKYIAWYQQKPGQAPRLLIQYTSTLQPGVPSRFSGSGSGTDYTFTISSLQPEDIATYYCLQYEQLRTFGGGTKVEIKRTVAAPSVFIFPPSDEQLKSGTASVVCLLNNFYPREAKVQWKVDNALQSGNSQESVTEQDSKDSTYSLSSTLTLSKADYEKHKVYACEVTHQGLSSPVTKSFNRGEC
notes: Heterodimerized anti-epiregulin IgG1-type antibody (knobs-into-holes); also called H240-Kn120/H240-HI068/L73-k0
On to B1, for which the Kd in the experiment with FcgRIa [1] amounted to 0.16 nM; with FcgRIIaR [2], 20 nM; in the experiment with FcgRIIaH [3], 41 nM; with FcgRIIb [4] it was 150 nM; with FcgRIIIaF [5], 2.2 nM; with FcgRIIIaV [6] it was 0.36 nM. Also, the Kd in the experiment with FcgRIa [7] came out at 0.16 nM; in the experiment with FcgRIIaR [8], 20 nM; with FcgRIIaH [9] it was 41 nM; in the experiment with FcgRIIb [10], 150 nM; in the experiment with FcgRIIIaF [11], 2.2 nM; in the experiment with FcgRIIIaV [12], 0.36 nM. Besides, the “Relative KD” value with FcgRIIaR [13], with FcgRIIaH [14], with FcgRIIb [15], in the experiment with FcgRIIIaF [16], with FcgRIIIaV [17] and in the experiment with FcgRIIaR [18] was 1 throughout. The “Relative KD” value in the experiment with FcgRIIaH [19], in the experiment with FcgRIIb [20], in the experiment with FcgRIIIaF [21] and with FcgRIIIaV [22] was 1 in each case.

B2: H240-Kn120/H240-Hl089/L73-k0 (antibody, human IgG1, kappa)
heavy 1: QDQLVQSGAEVKKPGASVKVSCKASGFNIKDTYIQWVRQAPGQGLEWMGRIDPLRKQTKYREKFEGRVTITADTSTNTAYMELSSLRSEDTAVYYCVRSGREFDYWGQGTLVTVSSASTKGPSVFPLAPSSKSTSGGTAALGCLVKDYFPEPVTVSWNSGALTSGVHTFPAVLQSSGLYSLSSVVTVPSSSLGTQTYICNVNHKPSNTKVDKKVEPKSCDKTHTCPPCPAPEYYWGPMVFLFPPKPKDTLMISRTPEVTCVVVDVSDEDPEVKFNWYVDGVEVHNAKTKPREEQYNATYRVVSVLTVLHQDWLNGKEYKCKVSNKDLPAPIEKTISKAKGQPREPQVCTLPPSRDELTKNQVSLWCLVKGFYPSDIAVEWESNGQPENNYKTTPPVLDSDGSFFLYSKLTVDKSRWQQGNVFSCSVMHEALHNHYTQKSLSLSP
heavy 2: QDQLVQSGAEVKKPGASVKVSCKASGFNIKDTYIQWVRQAPGQGLEWMGRIDPLRKQTKYREKFEGRVTITADTSTNTAYMELSSLRSEDTAVYYCVRSGREFDYWGQGTLVTVSSASTKGPSVFPLAPSSKSTSGGTAALGCLVKDYFPEPVTVSWNSGALTSGVHTFPAVLQSSGLYSLSSVVTVPSSSLGTQTYICNVNHKPSNTKVDKKVEPKSCDKTHTCPPCPAPELLTGPSVFLFPPKPKDTLMISRTPEVTCVVVDVSHEEPEVKFNWYVDGVEVHNAKTKPREEQYNSTYRVVSVLTVLHQDWLNGKEYKCKVSNDALPKPIEETISKAKGQPREPQVYTLPPSRCELTKNQVSLSCAVKGFYPSDIAVEWESNGQPENNYKTTPPVLDSDGSFFLVSKLTVDKSRWQQGNVFSCSVMHEALHNHYTQKSLSLSP
light: DIQMTQSPSSLSASVGDRVTITCRASQDIHKYIAWYQQKPGQAPRLLIQYTSTLQPGVPSRFSGSGSGTDYTFTISSLQPEDIATYYCLQYEQLRTFGGGTKVEIKRTVAAPSVFIFPPSDEQLKSGTASVVCLLNNFYPREAKVQWKVDNALQSGNSQESVTEQDSKDSTYSLSSTLTLSKADYEKHKVYACEVTHQGLSSPVTKSFNRGEC
notes: Heterodimerized anti-epiregulin antibody; G236T in the Hl068 chain; also called H240-Kn120/H240-HI089/L73-k0
Regarding B2, the Kd is 0.18 nM with FcgRIa [1]; 14 nM with FcgRIIaR [2]; 41 nM with FcgRIIaH [3]; 190 nM in the experiment with FcgRIIb [4]; 12 nM in the experiment with FcgRIIIaF [5]; 5.4 nM with FcgRIIIaV [6]. The dissociation constant (Kd) with FcgRIa [7] amounted to 0.18 nM; with FcgRIIaR [8] it was 14 nM; in the experiment with FcgRIIaH [9] it was 41 nM; in the experiment with FcgRIIb [10], 190 nM; with FcgRIIIaF [11], 12 nM; with FcgRIIIaV [12] it was 5.4 nM. The “Relative KD” value was found to be 1.4 with FcgRIIaR [13]; 1 with FcgRIIaH [14]; 0.8 with FcgRIIb [15]; 0.2 in the experiment with FcgRIIIaF [16]; 0.1 in the experiment with FcgRIIIaV [17]; 1.4 with FcgRIIaR [18]. Also, the “Relative KD” value with FcgRIIaH [19] turned out to be 1; in the experiment with FcgRIIb [20] it was 0.8; with FcgRIIIaF [21], 0.2; with FcgRIIIaV [22] it was 0.1.

The values above are taken from patent US20180155451A1 (published 2018).
